Changes are numbered by the printed parent chain.
Tests used:
[1] = biological target: T1, Ala-rFbg (recombinant fibrinogen, gamma-chain K88A, K111A, K382A, K399A)
T1 chain 1: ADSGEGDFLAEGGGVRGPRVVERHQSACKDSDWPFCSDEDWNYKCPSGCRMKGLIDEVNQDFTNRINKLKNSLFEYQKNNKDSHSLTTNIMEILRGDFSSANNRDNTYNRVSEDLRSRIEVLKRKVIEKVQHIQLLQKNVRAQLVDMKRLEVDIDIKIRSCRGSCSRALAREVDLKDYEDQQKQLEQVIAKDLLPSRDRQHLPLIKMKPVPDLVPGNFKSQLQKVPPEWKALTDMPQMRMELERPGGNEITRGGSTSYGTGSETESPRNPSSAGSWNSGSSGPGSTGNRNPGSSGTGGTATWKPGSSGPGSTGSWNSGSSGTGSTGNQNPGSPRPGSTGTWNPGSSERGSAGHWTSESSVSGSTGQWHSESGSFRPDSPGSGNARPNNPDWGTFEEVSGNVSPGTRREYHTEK
T1 chain 2: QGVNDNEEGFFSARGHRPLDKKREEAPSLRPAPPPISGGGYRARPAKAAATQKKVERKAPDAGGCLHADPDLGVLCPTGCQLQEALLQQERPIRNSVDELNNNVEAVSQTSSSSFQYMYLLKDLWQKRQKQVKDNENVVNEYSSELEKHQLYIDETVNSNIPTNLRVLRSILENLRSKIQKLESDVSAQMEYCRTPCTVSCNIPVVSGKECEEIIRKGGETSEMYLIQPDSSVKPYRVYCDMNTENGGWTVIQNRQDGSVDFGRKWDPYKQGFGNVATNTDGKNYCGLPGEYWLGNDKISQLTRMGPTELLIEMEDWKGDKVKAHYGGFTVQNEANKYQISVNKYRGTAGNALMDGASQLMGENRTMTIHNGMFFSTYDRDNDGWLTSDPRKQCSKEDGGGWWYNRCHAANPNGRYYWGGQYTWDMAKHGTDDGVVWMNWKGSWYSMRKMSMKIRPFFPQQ
T1 chain 3: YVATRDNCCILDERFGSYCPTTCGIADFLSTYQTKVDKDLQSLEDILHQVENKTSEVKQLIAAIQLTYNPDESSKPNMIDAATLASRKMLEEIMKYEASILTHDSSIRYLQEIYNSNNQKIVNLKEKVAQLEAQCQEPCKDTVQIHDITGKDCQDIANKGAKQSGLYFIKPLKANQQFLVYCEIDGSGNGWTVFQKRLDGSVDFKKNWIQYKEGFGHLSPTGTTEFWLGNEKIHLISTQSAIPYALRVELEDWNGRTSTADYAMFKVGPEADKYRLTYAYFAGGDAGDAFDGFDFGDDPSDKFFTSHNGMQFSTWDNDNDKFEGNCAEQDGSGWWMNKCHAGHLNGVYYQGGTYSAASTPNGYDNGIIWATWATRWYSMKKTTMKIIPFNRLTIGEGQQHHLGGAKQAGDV

[2] = biological target: T2, His-rFbg (recombinant fibrinogen, gamma-chain K88H, K111H, K382H, K399H)
T2 chain 1: T1 chain 1
T2 chain 2: T1 chain 2
T2 chain 3: T1 chain 3 with A62H, A85H, A356H, A373H

[3] = biological target: T3, synthetic gamma-chain peptide ATW(K)TRW with K changed to serine
T3 chain: ATWSTRW

[4] = biological target: T4, synthetic gamma-chain peptide ATL(K)SRM with K changed to serine
T4 chain: ATLSSRM

B1: human plasmin (Merck) (protein)
chain: KVYLSECKTGNGKNYRGTMSKTKNGITCQKWSSTSPHRPRFSPATHPSEGLEENYCRNPDNDPQGPWCYTTDPEKRYDYCDILECEEECMHCSGENYDGKISKTMSGLECQAWDSQSPHAHGYIPSKFPNKNLKKNYCRNPDRELRPWCFTTDPNKRWELCDIPRCTTPPPSSGPTYQCLKGTGENYRGNVAVTVSGHTCQHWSAQTPHTHNRTPENFPCKNLDENYCRNPDGKRAPWCHTTNSQVRWEYCKIPSCDSSPVSTEQLAPTAPPELTPVVQDCYHGDGQSYRGTSSTTTTGKKCQSWSSMTPHRHQKTPENYPNAGLTMNYCRNPDADKGPWCFTTDPSVRWEYCNLKKCSGTEASVVAPPPVVLLPDVETPSEEDCMFGNGKGYRGKRATTVTGTPCQDWAAQEPHRHSIFTPETNPRAGLEKNYCRNPDGDVGGPWCYTTNPRKLYDYCDVPQCAAPSFDCGKPQVEPKKCPGRVVGGCVAHPHSWPWQVSLRTRFGMHFCGGTLISPEWVLTAAHCLEKSPRPSSYKVILGAHQEVNLEPHVQEIEVSRLFLEPTRKDIALLKLSSPAVITDKVIPACLPSPNYVVADRTECFITGWGETQGTFGAGLLKEAQLPVIENKVCNRYEFLNGRVQSTELCAGHLAGGTDSCQGDSGGPLVCFEKDKYILQGVTSWGLGCARPNKPGVYVRVSRFVTWIEGVMRNN
- plasmin cleavage analysis of target sites (peptide fragments detected by MS) [1]: Position 382 shows a partial cleavage for the mutants (both cleaved and non-cleaved peptides detected)
- plasmin cleavage at the mutated gamma-chain sites 88, 111, 382, 399, high-resolution ESI-MS after 24 h digest in solution [1]: no cleavage was detected in either of the two mutants for all 4 mutations
- plasmin cleavage analysis of target sites (peptide fragments detected by MS) [2]: Position 382 shows a partial cleavage for the mutants (both cleaved and non-cleaved peptides detected)
- plasmin cleavage at the mutated gamma-chain sites 88, 111, 382, 399, high-resolution ESI-MS after 24 h digest in solution [2]: no cleavage was detected in either of the two mutants for all 4 mutations
- plasmin cleavage efficiency of synthetic peptide, HPLC [3]: Peptide sequences including S instead of K showed a significant reduction in cleavage efficiency compared to the original sequences
- plasmin cleavage efficiency of synthetic peptide, HPLC [4]: Peptide sequences including S instead of K showed a significant reduction in cleavage efficiency compared to the original sequences

Reference: patent publication US20260001937A1, “NOVEL RECOMBINANT FIBRINOGEN VARIANTS FOR FIBRIN SEALANTS FOR SURGICAL WOUND CARE” (Julius-Maximilians-Universität Würzburg, priority 2022, published 2026)
